Assay results reported in patent US20220073586A1 (EUTILEX, published 2022).
Where a chain is given by its changes, count along the chain named.

Key:
[1] = target: PD-L1 molecules (Sino, Cat #10084-H08H) (UniProt Q9NZQ7 19-238); assay: SPR, Biacore T200; PD-1 Fc fusion fixed on CM5 chip, PD-L1 injected at 3.125-100 nM
[2] = target: T1, PD-L2 antigen (coated on 96-well immunoplate) (UniProt Q9BQ51 20-220, limits assumed); assay: single antigen ELISA, PD-L2 coated at 1 ug/mL, detection with anti-hFc-HRP
T1 construct: also called antigen PD-L2
T1 sequence (looked up): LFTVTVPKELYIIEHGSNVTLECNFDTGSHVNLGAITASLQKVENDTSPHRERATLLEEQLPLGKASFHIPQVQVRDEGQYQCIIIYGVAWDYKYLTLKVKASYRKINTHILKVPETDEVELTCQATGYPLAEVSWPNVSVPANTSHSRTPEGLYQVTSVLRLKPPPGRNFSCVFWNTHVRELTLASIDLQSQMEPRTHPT
Description: (§1) Briefly, after coating PD-L1 antigen or PD-L2 antigen at a concentration of 1 μg/ml in a 96-well immunoplate at 4° C. overnight, 150 μl of 1× assay buffer (Biolegend) was treated for 1 hour to block non-specific binding. […] The treatment concentration on the antigen PD-L1-coated plate was serially diluted from 30 μg/mL to 3 times to make a total of 15 points, The treatment concentration on the antigen PD-L2 coated plate was serially diluted 3 times from 100 μg/mL to a total of 12 points. Anti-hFc-HRP (Biolegend) was treated with 100 μl at a concentration of 0.4 μg/mL. After incubation for 1 hour, color was developed with TMB, and after 3 minutes, the reaction was stopped using sulfuric acid. Washing was performed 3 times using washing buffer in all processes except for the process after TMB treatment, All processes except for the antigen coating process were carried out at room temperature.

[3] = target: T2, PD-L1 antigen (coated on 96-well immunoplate) (UniProt Q9NZQ7 19-238, limits assumed); assay: single antigen ELISA, PD-L1 coated at 1 ug/mL, detection with anti-hFc-HRP
T2 construct: also called antigen PD-L1
Description: as §1

Chain of PD-L1 molecules (Sino, Cat #10084-H08H) (Q9NZQ7 19-238 limits assumed): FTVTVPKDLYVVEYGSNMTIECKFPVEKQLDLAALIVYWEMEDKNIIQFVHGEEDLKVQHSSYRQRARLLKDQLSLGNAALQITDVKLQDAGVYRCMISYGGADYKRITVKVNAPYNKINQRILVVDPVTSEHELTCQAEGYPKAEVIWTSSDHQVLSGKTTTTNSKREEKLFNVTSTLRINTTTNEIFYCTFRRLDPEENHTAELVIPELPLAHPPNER
T2 sequence (Q9NZQ7 19-238 limits assumed): as above

B1: PD-1.m8 Fc fusion protein (Fc fusion)
chain: FLESPDRPWNAPTFSPALLLVAEGDNATFTCSFSNASESFHVVWHRESPSGQTDTLAAFPEDRSQPGQDHRFRVTRLPNGRDFHMSVVRAQRNDSGTYVCGVISLAPKIQIKESLGAELRVTERRAEVPTAHPSPSPRPAGQFQTLVVGGGGGSSNTKVDKRVEPKSCDKTHTCPPCPAPPVAGPSVFLFPPKPKDTLMISRTPEVTCVVVDVSHEDPEVQFNWYVDGVEVHNAKTKPREEQFNSTFRVVSVLTVVHQDWLNGKEYKCKVSNKGLPAPIEKTISKTKGQPREPQVYTLPPSREEMTKNQVSLTCLVKGFYPSDIAVEWESNGQPENNYKTTPPMLDSDGSFFLYSKLTVDKSRWQQGNVFSCSVMHEALHNHYTQKSLSLSPGK
[1]
  Kd: 1.04 nM
  koff: 0.00182 s⁻¹
  kon: 1.76e+06 M⁻¹ s⁻¹

B2: euPD-1 Fc fusion protein (Fc fusion)
chain: B1 chain with G116R
[2]
  binding result: no binding (tested: 100 ug/mL)
[3]
  EC50 (read off the curve): ~0.03 µg/mL
[1]
  Kd: 0.714 nM
  koff: 0.0013 s⁻¹
  kon: 1.82e+06 M⁻¹ s⁻¹

B3: PD-1.m7 Fc fusion protein (Fc fusion)
chain: B1 chain with H70C, Q91R
[1]
  Kd: 1.1 nM
  koff: 0.00216 s⁻¹
  kon: 1.96e+06 M⁻¹ s⁻¹
